± gives the uncertainty stated by the source.

The nature of this data set: abundance fitness (aPCA) (normalised: wild type 0, dead -1); higher = more abundant; growth selection in yeast, the domain comes from the species named. Particulars: Homo sapiens.
With “DnaJ homolog subfamily B member 1 E19R, P25685”, the abundance fitness is -0.452 ± 0.083. The result for “DnaJ homolog subfamily B member 1 E19S, P25685” reads -0.18 ± 0.069; that for “DnaJ homolog subfamily B member 1 E19T, P25685”, -0.36 ± 0.073; that for “DnaJ homolog subfamily B member 1 E19V, P25685”, -0.491 ± 0.093. The figure for “DnaJ homolog subfamily B member 1 E19W, P25685” is -1.25 ± 0.17. Substance “DnaJ homolog subfamily B member 1 E19Y, P25685” gave an abundance fitness of -1.06 ± 0.14. “DnaJ homolog subfamily B member 1 E38A, P25685” displayed an abundance fitness of -0.29 ± 0.26. The result for “DnaJ homolog subfamily B member 1 E38C, P25685” reads -0.027 ± 0.11; that for “DnaJ homolog subfamily B member 1 E38D, P25685”, -0.287 ± 0.24.

For “DnaJ homolog subfamily B member 1 E38F, P25685”, the abundance fitness is -0.127 ± 0.12. As to “DnaJ homolog subfamily B member 1 E38G, P25685”, the abundance fitness was -0.068 ± 0.098. Substance “DnaJ homolog subfamily B member 1 E38H, P25685” came in with an abundance fitness of 0.017 ± 0.2. The figure for “DnaJ homolog subfamily B member 1 E38I, P25685” is -0.034 ± 0.15; for “DnaJ homolog subfamily B member 1 E38L, P25685” it is -0.099 ± 0.061. The figure for “DnaJ homolog subfamily B member 1 E38M, P25685” is -0.041 ± 0.1; for “DnaJ homolog subfamily B member 1 E38N, P25685” it is -0.179 ± 0.2; for “DnaJ homolog subfamily B member 1 E38P, P25685” it is -0.342 ± 0.14. The figure for “DnaJ homolog subfamily B member 1 E38R, P25685” is -0.172 ± 0.091; for “DnaJ homolog subfamily B member 1 E38S, P25685” it is -0.106 ± 0.083. Take “DnaJ homolog subfamily B member 1 E38T, P25685”: the abundance fitness is -0.041 ± 0.089. Turning to “DnaJ homolog subfamily B member 1 E38V, P25685”, the abundance fitness was -0.006 ± 0.096. The result for “DnaJ homolog subfamily B member 1 E38W, P25685” reads -0.019 ± 0.081.

As for “DnaJ homolog subfamily B member 1 E42A, P25685”, the abundance fitness came out at 0.002 ± 0.077. On to “DnaJ homolog subfamily B member 1 E42C, P25685”, for which the abundance fitness was -0.048 ± 0.097. The figure for “DnaJ homolog subfamily B member 1 E42D, P25685” is 0.116 ± 0.11; for “DnaJ homolog subfamily B member 1 E42F, P25685” it is -0.171 ± 0.1. The figure for “DnaJ homolog subfamily B member 1 E42G, P25685” is -0.153 ± 0.097; for “DnaJ homolog subfamily B member 1 E42H, P25685” it is -0.003 ± 0.098; for “DnaJ homolog subfamily B member 1 E42I, P25685” it is -0.105 ± 0.12.

Take “DnaJ homolog subfamily B member 1 E42K, P25685”: the abundance fitness was 0.301 ± 0.14. The result for “DnaJ homolog subfamily B member 1 E42L, P25685” reads 0.086 ± 0.055; that for “DnaJ homolog subfamily B member 1 E42M, P25685”, 0.038 ± 0.079; that for “DnaJ homolog subfamily B member 1 E42N, P25685”, 0.027 ± 0.13. The figure for “DnaJ homolog subfamily B member 1 E42P, P25685” is 0.028 ± 0.087; for “DnaJ homolog subfamily B member 1 E42Q, P25685” it is -0.157 ± 0.12. The figure for “DnaJ homolog subfamily B member 1 E42R, P25685” is 0.024 ± 0.058; for “DnaJ homolog subfamily B member 1 E42S, P25685” it is -0.016 ± 0.065; for “DnaJ homolog subfamily B member 1 E42T, P25685” it is -0.052 ± 0.093. “DnaJ homolog subfamily B member 1 E42W, P25685” registered an abundance fitness of -0.122 ± 0.11.

As for “DnaJ homolog subfamily B member 1 E42Y, P25685”, the abundance fitness was -0.188 ± 0.1. The figure for “DnaJ homolog subfamily B member 1 E43A, P25685” is 0.025 ± 0.13; for “DnaJ homolog subfamily B member 1 E43C, P25685” it is -0.07 ± 0.2. The substance “DnaJ homolog subfamily B member 1 E43D, P25685” showed an abundance fitness of -0.153 ± 0.14. Turning to “DnaJ homolog subfamily B member 1 E43F, P25685”, the abundance fitness was -0.093 ± 0.19. The result for “DnaJ homolog subfamily B member 1 E43G, P25685” reads 0.009 ± 0.074; that for “DnaJ homolog subfamily B member 1 E43I, P25685”, 0.109 ± 0.12; that for “DnaJ homolog subfamily B member 1 E43K, P25685”, 0.156 ± 0.1.

In the case of “DnaJ homolog subfamily B member 1 E43L, P25685”, the abundance fitness came to 0.105 ± 0.066. Substance “DnaJ homolog subfamily B member 1 E43N, P25685” had an abundance fitness of -0.003 ± 0.21. The result for “DnaJ homolog subfamily B member 1 E43P, P25685” reads -0.177 ± 0.13. The result for “DnaJ homolog subfamily B member 1 E43Q, P25685” reads 0.086 ± 0.1. “DnaJ homolog subfamily B member 1 E43R, P25685” showed an abundance fitness of 0.11 ± 0.051. The figure for “DnaJ homolog subfamily B member 1 E43S, P25685” is -0.014 ± 0.092; for “DnaJ homolog subfamily B member 1 E43T, P25685” it is -0.109 ± 0.12; for “DnaJ homolog subfamily B member 1 E43V, P25685” it is 0.112 ± 0.062. The result for “DnaJ homolog subfamily B member 1 E43W, P25685” reads -0.043 ± 0.069; that for “DnaJ homolog subfamily B member 1 E43Y, P25685”, 0.196 ± 0.32; that for “DnaJ homolog subfamily B member 1 E47A, P25685”, 0.021 ± 0.088. Consider “DnaJ homolog subfamily B member 1 E47C, P25685”, for which the abundance fitness was -0.218 ± 0.095. Substance “DnaJ homolog subfamily B member 1 E47D, P25685” returned an abundance fitness of -0.073 ± 0.13. The figure for “DnaJ homolog subfamily B member 1 E47F, P25685” is -0.277 ± 0.098; for “DnaJ homolog subfamily B member 1 E47G, P25685” it is -0.054 ± 0.076. For “DnaJ homolog subfamily B member 1 E47H, P25685”, the abundance fitness was -0.009 ± 0.11.

With “DnaJ homolog subfamily B member 1 E47K, P25685”, the abundance fitness is -0.43 ± 0.12.

Take “DnaJ homolog subfamily B member 1 E47M, P25685”: the abundance fitness was -0.186 ± 0.096.

Substance “DnaJ homolog subfamily B member 1 E47N, P25685” gave an abundance fitness of 0.333 ± 0.21.

As for “DnaJ homolog subfamily B member 1 E47P, P25685”, the abundance fitness was -0.212 ± 0.088.

In turn, “DnaJ homolog subfamily B member 1 E47Q, P25685” displayed an abundance fitness of -0.153 ± 0.1.

As to “DnaJ homolog subfamily B member 1 E47R, P25685”, the abundance fitness is -0.071 ± 0.068.

As to “DnaJ homolog subfamily B member 1 E47S, P25685”, the abundance fitness was -0.099 ± 0.072. The result for “DnaJ homolog subfamily B member 1 E47T, P25685” reads -0.118 ± 0.068.

“DnaJ homolog subfamily B member 1 E47V, P25685”: the abundance fitness was -0.295 ± 0.088. The figure for “DnaJ homolog subfamily B member 1 E50A, P25685” is -0.241 ± 0.11; for “DnaJ homolog subfamily B member 1 E50C, P25685” it is -0.311 ± 0.095; for “DnaJ homolog subfamily B member 1 E50D, P25685” it is -0.074 ± 0.087. The figure for “DnaJ homolog subfamily B member 1 E50F, P25685” is -0.612 ± 0.19; for “DnaJ homolog subfamily B member 1 E50G, P25685” it is -0.326 ± 0.13; for “DnaJ homolog subfamily B member 1 E50H, P25685” it is -0.222 ± 0.17.

“DnaJ homolog subfamily B member 1 E50I, P25685” came in with an abundance fitness of -0.011 ± 0.1. The result for “DnaJ homolog subfamily B member 1 E50L, P25685” reads -0.026 ± 0.052. The result for “DnaJ homolog subfamily B member 1 E50M, P25685” reads -0.181 ± 0.12; that for “DnaJ homolog subfamily B member 1 E50N, P25685”, -0.328 ± 0.1; that for “DnaJ homolog subfamily B member 1 E50P, P25685”, -0.885 ± 0.18. The figure for “DnaJ homolog subfamily B member 1 E50Q, P25685” is -0.177 ± 0.082; for “DnaJ homolog subfamily B member 1 E50R, P25685” it is -0.036 ± 0.062; for “DnaJ homolog subfamily B member 1 E50S, P25685” it is -0.211 ± 0.066. Take “DnaJ homolog subfamily B member 1 E50V, P25685”: the abundance fitness is -0.085 ± 0.078. The result for “DnaJ homolog subfamily B member 1 E50W, P25685” reads -0.34 ± 0.11; that for “DnaJ homolog subfamily B member 1 E50Y, P25685”, -0.096 ± 0.12. As for “DnaJ homolog subfamily B member 1 E62C, P25685”, the abundance fitness is -0.361 ± 0.14.

For “DnaJ homolog subfamily B member 1 E62D, P25685”, the abundance fitness is -0.31 ± 0.13.

For the origin of these results see the Human Domainome abundance scans (Beltran et al. 2025).
